From doi:10.1101/2020.01.17.910273, “Ribosome association primes the stringent factor Rel for recruitment of deacylated tRNA to ribosomal A-site”

Tests used:
Assay in all cases: EMSA; EMSA: HEPES:Polymix buffer, 5 mM Mg2+, 0.1 uM tRNA or mRNA(MVF), with or without 1 uM mRNA(MVF) competitor, 5 min at 37 C; pH not in material
Settings in all cases: protein: recombinant; single strand
[1] = target: Rel NTD (Bacillus subtilis, UniProt O54408 1-373)
[2] = target: Rel TGS-Helical (Bacillus subtilis, UniProt O54408 374-583)
Sequence of Rel TGS-Helical (O54408 374-583): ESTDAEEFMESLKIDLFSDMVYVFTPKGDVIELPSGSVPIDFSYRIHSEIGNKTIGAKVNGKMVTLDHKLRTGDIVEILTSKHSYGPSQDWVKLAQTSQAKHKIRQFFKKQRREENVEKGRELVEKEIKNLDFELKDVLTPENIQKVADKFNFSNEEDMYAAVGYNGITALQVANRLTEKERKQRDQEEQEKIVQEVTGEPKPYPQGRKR

[3] = target: Rel (Bacillus subtilis, UniProt O54408 1-734)
Sequence of Rel (O54408 whole entry): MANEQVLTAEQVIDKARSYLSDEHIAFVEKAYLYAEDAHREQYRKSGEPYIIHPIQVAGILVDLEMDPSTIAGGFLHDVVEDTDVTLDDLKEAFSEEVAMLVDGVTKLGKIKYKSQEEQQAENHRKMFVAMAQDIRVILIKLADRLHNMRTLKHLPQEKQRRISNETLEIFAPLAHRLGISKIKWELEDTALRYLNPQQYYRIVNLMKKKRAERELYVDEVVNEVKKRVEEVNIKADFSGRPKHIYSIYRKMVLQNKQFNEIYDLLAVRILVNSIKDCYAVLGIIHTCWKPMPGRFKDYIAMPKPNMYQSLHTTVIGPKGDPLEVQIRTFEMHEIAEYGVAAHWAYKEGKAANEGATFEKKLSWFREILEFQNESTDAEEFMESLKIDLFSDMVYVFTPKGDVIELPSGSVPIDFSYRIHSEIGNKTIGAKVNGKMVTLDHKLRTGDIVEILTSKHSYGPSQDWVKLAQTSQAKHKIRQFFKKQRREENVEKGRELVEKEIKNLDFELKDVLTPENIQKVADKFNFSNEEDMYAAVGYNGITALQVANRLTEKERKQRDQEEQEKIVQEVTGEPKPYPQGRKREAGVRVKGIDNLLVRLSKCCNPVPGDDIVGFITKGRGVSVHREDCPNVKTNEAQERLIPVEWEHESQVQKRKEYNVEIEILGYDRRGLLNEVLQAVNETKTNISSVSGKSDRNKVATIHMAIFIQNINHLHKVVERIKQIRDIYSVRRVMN

Sequence of Rel NTD (O54408 1-373): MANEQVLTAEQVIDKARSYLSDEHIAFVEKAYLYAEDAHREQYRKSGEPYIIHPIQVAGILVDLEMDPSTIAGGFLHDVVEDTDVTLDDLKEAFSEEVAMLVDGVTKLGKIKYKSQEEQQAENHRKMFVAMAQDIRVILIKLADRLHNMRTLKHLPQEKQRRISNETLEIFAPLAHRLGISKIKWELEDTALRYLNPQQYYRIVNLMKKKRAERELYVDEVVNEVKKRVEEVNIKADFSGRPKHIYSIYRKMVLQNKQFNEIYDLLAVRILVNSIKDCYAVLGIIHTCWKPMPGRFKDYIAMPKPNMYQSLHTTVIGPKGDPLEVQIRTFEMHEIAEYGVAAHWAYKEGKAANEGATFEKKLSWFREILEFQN

## GGCAAGGAGGAGAUAAGAAUGGUUUUCUAAUA (ssRNA) [mRNA(MVF)]
[1]
  apparent K (half saturation): 680 ± 30 nM
[2]
  binding result: no binding
[3]
  apparent K (half saturation): 490 ± 10 nM
